# Measurements: the Immune Epitope Database (IEDB)
# Assays:
# Test in all cases: IEDB peptide-MHC binding, purified MHC/competitive/radioactivity; filed as Kd, often an IC50 or EC50 that approximates it; ≥ and ≤ were set here for values at or beyond the usual limits of such assays
# HLA-A*02:06 = molecular target: HLA-A*02:06
# HLA-A*02:03 = molecular target: HLA-A*02:03
# HLA-A*02:02 = molecular target: HLA-A*02:02
# [1] = source organism: Vaccinia virus WR
# [2] = source organism: SARS coronavirus Tor2
# [3] = source organism: Dengue virus 3 Martinique/1243/1999
# [4] = source organism: Mammarenavirus lassaense
# [5] = source organism: HIV-1 M:B_ARV2/SF2
sequence,measurement,setting,value
AAAATCALV,Kd,HLA-A*02:06; [1],12.5 nM
same,Kd,HLA-A*02:03; [1],9.05 nM
same,Kd,HLA-A*02:02; [1],14.6 nM
ALALEQYGI,Kd,HLA-A*02:06; [1],548 nM
same,Kd,HLA-A*02:03; [1],40 nM
same,Kd,HLA-A*02:02; [1],0.695 nM
ATFRDMLLNV,Kd,HLA-A*02:06; [1],3.03 nM
same,Kd,HLA-A*02:03; [1],0.398 nM
same,Kd,HLA-A*02:02; [1],7.06 nM
AVTLNRIKI,Kd,HLA-A*02:06; [1],7610 nM
same,Kd,HLA-A*02:03; [1],3340 nM
same,Kd,HLA-A*02:02; [1],10800 nM
DISSFYWSL,Kd,HLA-A*02:06; [1],3970 nM
same,Kd,HLA-A*02:03; [1],6870 nM
same,Kd,HLA-A*02:02; [1],391 nM
DMLKLFTHDI,Kd,HLA-A*02:06; [1],2970 nM
same,Kd,HLA-A*02:03; [1],16.1 nM
same,Kd,HLA-A*02:02; [1],196 nM
DVDMDFDLNI,Kd,HLA-A*02:06; [1],5820 nM
same,Kd,HLA-A*02:03; [1],1520 nM
same,Kd,HLA-A*02:02; [1],2030 nM
EATFIDVHI,Kd,HLA-A*02:06; [1],3430 nM
same,Kd,HLA-A*02:03; [1],862 nM
same,Kd,HLA-A*02:02; [1],1660 nM
ELLEMKYAL,Kd,HLA-A*02:06; [1],6010 nM
same,Kd,HLA-A*02:03; [1],863 nM
same,Kd,HLA-A*02:02; [1],952 nM
ELPYVGDTSM,Kd,HLA-A*02:06; [1],≥ 29900 nM
same,Kd,HLA-A*02:03; [1],14200 nM
same,Kd,HLA-A*02:02; [1],4130 nM
ETMYLTMKAI,Kd,HLA-A*02:06; [1],3580 nM
same,Kd,HLA-A*02:03; [1],25.2 nM
same,Kd,HLA-A*02:02; [1],1320 nM
ETQSGALEVL,Kd,HLA-A*02:06; [1],1580 nM
same,Kd,HLA-A*02:03; [1],14500 nM
same,Kd,HLA-A*02:02; [1],5310 nM
FAVGLLFRRL,Kd,HLA-A*02:06; source organism: Dengue virus 1 Brazil/97-11/1997,20.4 nM
FLMSFTILCL,Kd,HLA-A*02:06; [2],74.4 nM
same,Kd,HLA-A*02:03; [2],213 nM
same,Kd,HLA-A*02:02; [2],0.821 nM
FVYVSVMNFI,Kd,HLA-A*02:06; [1],7.5 nM
same,Kd,HLA-A*02:03; [1],17.8 nM
same,Kd,HLA-A*02:02; [1],76.5 nM
GTIILNKIV,Kd,HLA-A*02:06; [1],1430 nM
same,Kd,HLA-A*02:03; [1],3400 nM
same,Kd,HLA-A*02:02; [1],1190 nM
GTSAAAYFV,Kd,HLA-A*02:06; [2],90.5 nM
same,Kd,HLA-A*02:03; [2],202 nM
same,Kd,HLA-A*02:02; [2],35.2 nM
IAACAMLLV,Kd,HLA-A*02:06; [2],131 nM
same,Kd,HLA-A*02:03; [2],387 nM
same,Kd,HLA-A*02:02; [2],320 nM
ILFILFFAYV,Kd,HLA-A*02:06; [1],1210 nM
same,Kd,HLA-A*02:03; [1],366 nM
same,Kd,HLA-A*02:02; [1],132 nM
ILLILSCIFA,Kd,HLA-A*02:06; [1],492 nM
same,Kd,HLA-A*02:03; [1],307 nM
same,Kd,HLA-A*02:02; [1],448 nM
IMAFILGIII,Kd,HLA-A*02:06; [1],3190 nM
same,Kd,HLA-A*02:03; [1],3160 nM
same,Kd,HLA-A*02:02; [1],632 nM
IMFMLIFNV,Kd,HLA-A*02:06; [1],13.1 nM
same,Kd,HLA-A*02:03; [1],10.2 nM
same,Kd,HLA-A*02:02; [1],0.146 nM
KINPLLDEPL,Kd,HLA-A*02:06; [1],18.6 nM
same,Kd,HLA-A*02:03; [1],304 nM
same,Kd,HLA-A*02:02; [1],53.4 nM
KLREVYTQL,Kd,HLA-A*02:03; [3],39.1 nM
KQIMECSRML,Kd,HLA-A*02:06; [1],59.5 nM
same,Kd,HLA-A*02:03; [1],≥ 29600 nM
same,Kd,HLA-A*02:02; [1],54.8 nM
KVIKLVKSLV,Kd,HLA-A*02:06; [1],2140 nM
same,Kd,HLA-A*02:03; [1],13400 nM
same,Kd,HLA-A*02:02; [1],14300 nM
LALWDSNFFT,Kd,HLA-A*02:06; [1],1250 nM
same,Kd,HLA-A*02:03; [1],19900 nM
same,Kd,HLA-A*02:02; [1],11000 nM
LLALNDMGKV,Kd,HLA-A*02:03; [3],15 nM
LLEMKYALI,Kd,HLA-A*02:06; [1],14900 nM
same,Kd,HLA-A*02:03; [1],135 nM
same,Kd,HLA-A*02:02; [1],354 nM
LLKETIQKDI,Kd,HLA-A*02:06; [1],≥ 23400 nM
same,Kd,HLA-A*02:03; [1],782 nM
same,Kd,HLA-A*02:02; [1],3060 nM
LLMEGLKLLS,Kd,HLA-A*02:06; [4],1750 nM
same,Kd,HLA-A*02:03; [4],39.5 nM
same,Kd,HLA-A*02:02; [4],78.3 nM
LMAMDLGEL,Kd,HLA-A*02:03; source organism: Dengue virus 2 Peru/IQT2913/1996,6.78 nM
LTFGWCFKLV,Kd,HLA-A*02:06; [5],20.1 nM
same,Kd,HLA-A*02:03; [5],167 nM
same,Kd,HLA-A*02:02; [5],910 nM
LTHGADPNA,Kd,HLA-A*02:06; [1],≥ 29400 nM
same,Kd,HLA-A*02:03; [1],10500 nM
same,Kd,HLA-A*02:02; [1],19400 nM
LVIGVAFLAV,Kd,HLA-A*02:06; [2],2.6 nM
same,Kd,HLA-A*02:03; [2],22.4 nM
same,Kd,HLA-A*02:02; [2],2710 nM
MAFILGIIIT,Kd,HLA-A*02:06; [1],10300 nM
same,Kd,HLA-A*02:03; [1],2830 nM
same,Kd,HLA-A*02:02; [1],4680 nM
MMNITRLEVI,Kd,HLA-A*02:06; [1],134 nM
same,Kd,HLA-A*02:03; [1],26.1 nM
same,Kd,HLA-A*02:02; [1],85.4 nM
MQVFFGYFA,Kd,HLA-A*02:06; [2],1.04 nM
same,Kd,HLA-A*02:03; [2],193 nM
same,Kd,HLA-A*02:02; [2],9.96 nM
NCLSLLLSV,Kd,HLA-A*02:06; [4],630 nM
same,Kd,HLA-A*02:03; [4],437 nM
same,Kd,HLA-A*02:02; [4],48.7 nM
NIREGTHVLL,Kd,HLA-A*02:06; [1],≥ 34600 nM
same,Kd,HLA-A*02:03; [1],5510 nM
same,Kd,HLA-A*02:02; [1],8880 nM
PIIYSKAGNI,Kd,HLA-A*02:06; [1],728 nM
same,Kd,HLA-A*02:03; [1],139 nM
same,Kd,HLA-A*02:02; [1],654 nM
QLEELEDEL,Kd,HLA-A*02:03; source organism: Homo sapiens,≥ 68400 nM
QLSNNKYVL,Kd,HLA-A*02:06; [1],10700 nM
same,Kd,HLA-A*02:03; [1],4940 nM
same,Kd,HLA-A*02:02; [1],78.5 nM
RLYDYFTRVT,Kd,HLA-A*02:06; [1],691 nM
same,Kd,HLA-A*02:03; [1],551 nM
same,Kd,HLA-A*02:02; [1],2450 nM
SILSLETVKM,Kd,HLA-A*02:06; [1],806 nM
same,Kd,HLA-A*02:03; [1],455 nM
same,Kd,HLA-A*02:02; [1],203 nM
SINITPDDGL,Kd,HLA-A*02:06; [1],0.343 nM
same,Kd,HLA-A*02:03; [1],1230 nM
same,Kd,HLA-A*02:02; [1],413 nM
SISSVLTIL,Kd,HLA-A*02:06; [1],110 nM
same,Kd,HLA-A*02:03; [1],3.98 nM
same,Kd,HLA-A*02:02; [1],1.25 nM
